In publication PMC12561398, “The N-Terminal Extension of the Mycobacterium avium Rel Protein Is a Dual Regulator of the Bifunctional Enzyme and Represents a Novel Target” (Antibiotics, 2025):

Columns and labels:
MavRel ACT domain = molecular target: T1, MavRel ACT domain (Mycobacterium avium, UniProt A0ACG7XC01); settings: protein (dimer):valine 1:10 and 1:50; 50 mM Tris pH 8.5, 100 mM NaCl, 5% glycerol; 298 K; cleft at dimer interface
T1 construct: gene relA

[1] = test system: MavRel TGS Y473W (Mycobacterium avium subsp. avium ATCC 25291); assay: tryptophan fluorescence quenching; settings: 50 mM Tris-HCl pH 8.5, 350 mM NaCl, 1 mM DTT; excitation 295 nm, emission 355 nm; temperature not stated
[2] = test system: MavRel Y473W (full length) (Mycobacterium avium subsp. avium ATCC 25291); assay: tryptophan fluorescence quenching; settings: 50 mM Tris-HCl pH 8.5, 350 mM NaCl, 1 mM DTT; excitation 295 nm, emission 355 nm; temperature not stated
SEC = molecular target: the molecule itself; assay: SEC

CC(C)[C@H](N)C(=O)O [valine]
chemical shift perturbation (MavRel ACT domain): indicates MavRel ACT:valine binding as well as a change in conformation

deacylated E. coli tRNA
Kd [1]: 650 nM
Kd [2]: 1670 nM

B1: MavRel_(1–444) (domain or fragment, Mycobacterium avium subsp. avium, UniProt A0ACG7XC01 1-444, looked up)
chain: MAEENSAAQALDAPAESPPNPVIETPEPPTESLKTSSSASRRVRARLARRMTAQRSTLNPVLEPLVAMHREIYPKANVQLLQRAFEVADQRHASQLRHSGDPYITHPLAVATILAELGMDTTTLVAALLHDTVEDTGYTLAQLSEEFGEEVGHLVDGVTKLDRVVLGSAAEGETIRKMITAMARDPRVLVIKVADRLHNMRTMRFLPPEKQARKARETLEVIAPLAHRLGMASVKWELEDLSFAILHPKKYDEIVRLVAGRAPSRDTYLAKVRAEIINTLNASKIKATVEGRPKHYWSIYQKMIVKGRDFDDIHDLVGIRILCDEIRDCYAAVGVVHSLWQPMAGRFKDYIAQPRYGVYQSLHTTVVGPEGKPLEVQIRTRDMHRTAEYGIAAHWRYKEAKGRNGVPHPHAAAEIDDMAWMRQLLDWQREAADPGEFLESLRYD
notes: The N-terminal His6 tag is stated for the parent relA construct in pET29b; also called MavRel NTD; N-terminal domain (NTD) of MavRel; source: E. coli C41(DE3), purified (Ni-NTA, SEC)
stoichiometry N (SEC): 2

B2: MavRel_(51–444) (domain or fragment)
chain: MTAQRSTLNPVLEPLVAMHREIYPKANVQLLQRAFEVADQRHASQLRHSGDPYITHPLAVATILAELGMDTTTLVAALLHDTVEDTGYTLAQLSEEFGEEVGHLVDGVTKLDRVVLGSAAEGETIRKMITAMARDPRVLVIKVADRLHNMRTMRFLPPEKQARKARETLEVIAPLAHRLGMASVKWELEDLSFAILHPKKYDEIVRLVAGRAPSRDTYLAKVRAEIINTLNASKIKATVEGRPKHYWSIYQKMIVKGRDFDDIHDLVGIRILCDEIRDCYAAVGVVHSLWQPMAGRFKDYIAQPRYGVYQSLHTTVVGPEGKPLEVQIRTRDMHRTAEYGIAAHWRYKEAKGRNGVPHPHAAAEIDDMAWMRQLLDWQREAADPGEFLESLRYD
notes: source: E. coli C41(DE3), purified (Ni-NTA, SEC)
stoichiometry N (SEC): 2
